Assay in all cases: FRET or BRET; biosensor lysate at three concentrations (200,000, 400,000 and 800,000 RLU) incubated with VEGF ranges adjusted for each biosensor; Delta eBRET2 ratio against the biosensor without VEGF
In general terms: BRET reads energy transfer from a luciferase to a nearby fluorophore.

The target in test [1] is eBRET2 VEGF biosensor Re07 (Rluc8 - VEGF receptor 2 domains 2 and 3 - GFP2) (human).
Test [2] concerns the target eBRET2 VEGF biosensor Re09 (Rluc8 - VEGF receptor 1 domain 2 - VEGF receptor 2 domain 3 - GFP2) (human).
Test [3] concerns the target eBRET2 VEGF biosensor Re06 (Rluc8 - VEGF receptor 2 domain 3 - GFP2) (human).
Test [4] concerns the target eBRET2 VEGF biosensor Re02 (Rluc8 - VEGF receptor 1 domain 3 - GFP2) (human).

Sequence of eBRET2 VEGF biosensor Re02 (Rluc8 - VEGF receptor 1 domain 3 - GFP2) (human) (P17948 27-758): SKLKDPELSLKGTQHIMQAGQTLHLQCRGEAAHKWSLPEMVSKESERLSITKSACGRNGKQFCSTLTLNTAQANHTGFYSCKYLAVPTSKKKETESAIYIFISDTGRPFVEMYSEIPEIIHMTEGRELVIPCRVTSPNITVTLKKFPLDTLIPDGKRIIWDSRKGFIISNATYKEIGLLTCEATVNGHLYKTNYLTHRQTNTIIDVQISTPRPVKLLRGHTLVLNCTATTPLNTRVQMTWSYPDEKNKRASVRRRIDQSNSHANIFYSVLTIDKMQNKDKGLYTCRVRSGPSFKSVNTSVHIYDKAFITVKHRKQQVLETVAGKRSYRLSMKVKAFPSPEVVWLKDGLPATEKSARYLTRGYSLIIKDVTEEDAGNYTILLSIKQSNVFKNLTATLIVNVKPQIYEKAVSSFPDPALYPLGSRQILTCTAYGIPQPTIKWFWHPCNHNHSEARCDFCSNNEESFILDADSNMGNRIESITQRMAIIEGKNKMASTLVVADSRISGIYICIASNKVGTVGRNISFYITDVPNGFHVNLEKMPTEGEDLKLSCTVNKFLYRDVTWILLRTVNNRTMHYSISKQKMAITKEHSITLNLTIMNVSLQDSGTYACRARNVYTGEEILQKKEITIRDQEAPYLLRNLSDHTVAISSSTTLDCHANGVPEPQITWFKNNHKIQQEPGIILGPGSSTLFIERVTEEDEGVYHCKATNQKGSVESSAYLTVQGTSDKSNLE
Sequence of eBRET2 VEGF biosensor Re06 (Rluc8 - VEGF receptor 2 domain 3 - GFP2) (human) (P35968 20-764): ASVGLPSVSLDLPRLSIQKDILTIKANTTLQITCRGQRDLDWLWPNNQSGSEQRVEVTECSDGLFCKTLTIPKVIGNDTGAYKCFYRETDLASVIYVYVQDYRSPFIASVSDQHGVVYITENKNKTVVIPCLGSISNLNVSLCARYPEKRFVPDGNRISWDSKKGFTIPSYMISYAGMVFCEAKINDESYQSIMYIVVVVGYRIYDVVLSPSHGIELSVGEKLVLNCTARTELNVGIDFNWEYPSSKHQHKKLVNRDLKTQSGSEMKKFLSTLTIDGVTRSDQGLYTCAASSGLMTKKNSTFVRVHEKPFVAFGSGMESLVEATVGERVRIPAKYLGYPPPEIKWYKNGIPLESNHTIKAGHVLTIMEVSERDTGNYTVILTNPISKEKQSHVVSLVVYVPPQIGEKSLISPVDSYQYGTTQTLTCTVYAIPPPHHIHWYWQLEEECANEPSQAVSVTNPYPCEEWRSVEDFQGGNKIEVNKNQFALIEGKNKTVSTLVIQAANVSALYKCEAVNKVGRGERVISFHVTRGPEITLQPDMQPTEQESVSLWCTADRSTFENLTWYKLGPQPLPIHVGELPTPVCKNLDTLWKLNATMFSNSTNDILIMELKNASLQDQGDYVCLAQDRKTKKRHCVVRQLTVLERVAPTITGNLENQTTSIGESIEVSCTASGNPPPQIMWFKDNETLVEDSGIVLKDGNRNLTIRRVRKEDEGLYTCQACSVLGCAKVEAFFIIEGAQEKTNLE
Sequence of eBRET2 VEGF biosensor Re07 (Rluc8 - VEGF receptor 2 domains 2 and 3 - GFP2) (human) (P35968 20-764): as above

For the substance “recombinant human VEGF (Active Max VEGF-A165) (ligand)”, the maximum Delta eBRET2 ratio (ΔBR) at 4 ng/ml VEGF, biosensor at 400,000 RLU in test [1] was 27.7 mBU. Moreover, in test [2], the maximum Delta eBRET2 ratio (ΔBR) at 1 μg/ml VEGF, biosensor at 200,000 RLU was determined as 62.6 mBU and the maximum Delta eBRET2 ratio (ΔBR) at 1 μg/ml VEGF, biosensor at 800,000 RLU was determined as 100 mBU. In test [3], the Delta eBRET2 ratio (ΔBR) at 1000 pg/ml VEGF, biosensor at 200,000 RLU stood at 41 mBU and the maximum Delta eBRET2 ratio (ΔBR) at 1000 pg/ml VEGF, biosensor at 400,000 RLU turned out to be 106 mBU. In test [4], the Delta eBRET2 ratio (ΔBR) at 0.1 ng/ml VEGF, biosensor at 200,000 RLU is 2.95 mBU and the Delta eBRET2 ratio (ΔBR) at 100 ng/ml VEGF, biosensor at 200,000 RLU was 42.5 mBU.

The values are drawn from publication PMC7098639.
